Literature values in article PMC5494978.

Target: Bfd (Pseudomonas aeruginosa) (UniProt Q9HY80)
UniProt Q9HY80, sequence (Q9HY80 whole entry): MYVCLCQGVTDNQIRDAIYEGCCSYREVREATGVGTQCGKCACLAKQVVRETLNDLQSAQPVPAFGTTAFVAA

BfrB (from UniProt Q9HY79)
Kd: 3000 nM
